Values of other authors as cited in article PMC10404681, “Intrinsic catalytic properties of histone H3 lysine-9 methyltransferases preserve monomethylation levels under low S-adenosylmethionine” (The Journal of Biological Chemistry, 2023).

Target: histone H3 peptide (Homo sapiens) (UniProt P68431)

EHMT1/EHMT2 heterodimer, sequence (Q9H9B1 2-1298): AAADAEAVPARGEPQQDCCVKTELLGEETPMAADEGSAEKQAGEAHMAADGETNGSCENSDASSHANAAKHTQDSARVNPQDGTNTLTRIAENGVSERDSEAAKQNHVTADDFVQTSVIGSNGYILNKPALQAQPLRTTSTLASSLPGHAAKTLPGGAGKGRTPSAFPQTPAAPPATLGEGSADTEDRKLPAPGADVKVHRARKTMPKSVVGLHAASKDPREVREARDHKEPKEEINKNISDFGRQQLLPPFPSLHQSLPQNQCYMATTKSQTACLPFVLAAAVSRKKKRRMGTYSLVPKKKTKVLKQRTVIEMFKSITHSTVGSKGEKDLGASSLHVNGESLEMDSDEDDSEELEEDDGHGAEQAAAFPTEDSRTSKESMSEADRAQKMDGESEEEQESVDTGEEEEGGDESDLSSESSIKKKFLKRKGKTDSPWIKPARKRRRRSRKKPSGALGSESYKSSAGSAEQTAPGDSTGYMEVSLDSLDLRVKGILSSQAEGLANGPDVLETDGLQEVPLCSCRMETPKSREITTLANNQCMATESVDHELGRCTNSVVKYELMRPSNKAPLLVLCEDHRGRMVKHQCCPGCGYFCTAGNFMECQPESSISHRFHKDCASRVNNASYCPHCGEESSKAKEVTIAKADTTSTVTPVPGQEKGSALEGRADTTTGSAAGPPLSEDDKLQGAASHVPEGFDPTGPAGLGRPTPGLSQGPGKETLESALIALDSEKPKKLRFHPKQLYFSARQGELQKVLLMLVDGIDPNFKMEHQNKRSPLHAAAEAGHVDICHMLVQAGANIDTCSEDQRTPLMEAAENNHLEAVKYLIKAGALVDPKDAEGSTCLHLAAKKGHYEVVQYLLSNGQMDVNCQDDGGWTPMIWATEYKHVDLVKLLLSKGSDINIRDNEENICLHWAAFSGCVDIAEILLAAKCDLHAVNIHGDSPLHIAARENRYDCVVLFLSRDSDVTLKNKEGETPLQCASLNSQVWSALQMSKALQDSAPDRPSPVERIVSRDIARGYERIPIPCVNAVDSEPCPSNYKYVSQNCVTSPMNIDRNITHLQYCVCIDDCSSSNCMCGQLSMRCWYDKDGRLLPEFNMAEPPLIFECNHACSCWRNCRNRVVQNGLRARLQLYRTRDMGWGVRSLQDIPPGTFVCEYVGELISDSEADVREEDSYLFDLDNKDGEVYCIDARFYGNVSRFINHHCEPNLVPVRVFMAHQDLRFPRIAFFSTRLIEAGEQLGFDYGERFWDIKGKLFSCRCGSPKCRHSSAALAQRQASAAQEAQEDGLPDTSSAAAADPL
EHMT1/EHMT2 heterodimer, sequence (Q96KQ7 2-1210, further chain): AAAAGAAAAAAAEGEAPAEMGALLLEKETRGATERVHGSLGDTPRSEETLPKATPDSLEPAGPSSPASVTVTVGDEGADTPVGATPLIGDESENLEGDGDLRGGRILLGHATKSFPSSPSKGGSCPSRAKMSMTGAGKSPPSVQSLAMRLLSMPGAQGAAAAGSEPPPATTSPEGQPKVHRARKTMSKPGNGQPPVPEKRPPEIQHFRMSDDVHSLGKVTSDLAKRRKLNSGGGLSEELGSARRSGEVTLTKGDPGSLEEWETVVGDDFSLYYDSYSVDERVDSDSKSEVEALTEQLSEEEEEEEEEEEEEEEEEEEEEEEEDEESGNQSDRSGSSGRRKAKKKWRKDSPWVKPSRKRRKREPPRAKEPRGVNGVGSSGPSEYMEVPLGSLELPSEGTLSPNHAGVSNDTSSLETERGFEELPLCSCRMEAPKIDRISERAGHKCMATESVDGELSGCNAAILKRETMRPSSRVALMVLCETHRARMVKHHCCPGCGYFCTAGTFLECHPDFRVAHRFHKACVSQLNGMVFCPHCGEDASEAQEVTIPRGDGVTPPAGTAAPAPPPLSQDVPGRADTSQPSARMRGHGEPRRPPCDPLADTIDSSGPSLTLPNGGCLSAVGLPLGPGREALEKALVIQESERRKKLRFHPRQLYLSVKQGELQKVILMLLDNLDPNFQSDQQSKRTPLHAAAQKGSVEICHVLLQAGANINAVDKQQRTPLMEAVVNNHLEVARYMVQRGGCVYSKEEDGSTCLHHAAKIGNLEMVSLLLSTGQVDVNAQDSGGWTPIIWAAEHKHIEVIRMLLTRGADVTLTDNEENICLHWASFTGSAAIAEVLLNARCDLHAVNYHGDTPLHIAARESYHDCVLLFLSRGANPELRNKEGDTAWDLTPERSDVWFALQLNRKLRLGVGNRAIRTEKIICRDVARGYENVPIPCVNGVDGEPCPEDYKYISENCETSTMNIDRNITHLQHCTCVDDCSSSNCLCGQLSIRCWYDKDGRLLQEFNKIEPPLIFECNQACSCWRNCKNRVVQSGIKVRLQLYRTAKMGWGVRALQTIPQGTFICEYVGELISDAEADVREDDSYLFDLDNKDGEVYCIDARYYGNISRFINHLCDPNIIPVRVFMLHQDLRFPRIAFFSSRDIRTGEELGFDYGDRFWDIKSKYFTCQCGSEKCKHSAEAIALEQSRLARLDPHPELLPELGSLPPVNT

Substance: EHMT1/EHMT2 heterodimer (from UniProt Q9H9B1)
- Kd: 7.35 µM
